According to publication PMC9117555 (iScience, 2022):
Numbering of substitutions follows the chain as printed.

Assays:
TrkA-ΔeJTM (rat) = TrkA-ΔeJTM (rat) (UniProt P35739); experiment: flow cytometry on cells
[1] = molecular target: rat TrkA with an N-terminal HA tag (wild type) (rat, UniProt P35739 33-799); experiment: flow cytometry on cells
solution NMR = molecular target: the molecule itself; experiment: solution NMR
cross-linking = molecular target: the molecule itself; experiment: cross-linking

## biotinylated NGF (nerve growth factor) (from UniProt P01139 122-241) (ligand)
TrkA-ΔeJTM (rat)
  Kd: 760 nM

B1: biotinylated NGF (nerve growth factor) (ligand, UniProt P01139 122-241, looked up)
chain: SSTHPVFHMGEFSVCDSVSVWVGDKTTATDIKGKEVTVLAEVNINNSVFRQYFFETKCRASNPVESGCRGIDSKHWNSYCTTTHTFVKALTTDEKQAAWRFIRIDTACVCVLSRKATRRG
modifications: biotin (EZ-Link Sulfo-NHS-Biotin reagent; sites not stated)
[1]
  Kd: 4.4 nM

B2: TrkA-eJTM-TMD (D380-K447 of human TrkA) (domain or fragment, UniProt P04629 380-447, looked up)
chain: DNPFEFNPEDPIPVSFSPVDTNSTSGDPVEKKDETPFGVSVAVGLAVFACLFLSTLLLVLNKCGRRNK
Solution NMR
  stoichiometry N: 2

B3: TrkA-eJTM-TMD-K410C (domain or fragment, human, UniProt P04629 380-447, looked up)
chain: B2 chain with K31C
modifications: also: disulfide between C410 of two chains in the cross-linked state (dimer)
cross-linking
  stoichiometry N: 2
